First the molecules themselves.
T1: FcγRIIb (human, UniProt P31994 43-217)
T1 construct: extracellular domain; Soluble extracellular domain with C-terminal His tag, used as analyte; also called FcgRIIb; CD32B; not shown: His tag at the C terminus
T1 sequence (looked up): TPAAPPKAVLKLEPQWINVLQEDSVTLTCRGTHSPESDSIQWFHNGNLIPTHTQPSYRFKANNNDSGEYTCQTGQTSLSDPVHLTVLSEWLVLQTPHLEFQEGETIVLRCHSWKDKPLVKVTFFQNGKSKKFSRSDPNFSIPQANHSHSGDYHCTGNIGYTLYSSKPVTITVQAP

B1: GpH7-A5/GpH7-B3 variant N325_16H/GpL16-k0 (antibody, human IgG1, kappa)
heavy 1: not shown
heavy 2: not shown
light: DIVMTQSPLSLPVTPGEPASISCQASESLVHSNRNTYLHWYLQKPGQSPQLLIYKVSNRFSGVPDRFSGSGSGTDFTLKISRVEAEDVGVYYCSQNTHVPPTFGQGTKVEIERTVAAPSVFIFPPSDEQLKSGTASVVCLLNNFYPREAKVQWKVDNALQSGNSQESVTEQDSKDSTYSLSSTLTLSKADYEKHKVYACEVTHQGLSSPVTKSFNRGEC
notes: He Ab: mutation in one H chain only; also called He Ab
B2: GpH7-A5/GpH7-B3 variant I336_09D/GpL16-k0 (antibody, human IgG1, kappa)
heavy 1: not shown
heavy 2: not shown
light: B1 light
notes: as for B1
B3: GpH7-A5/GpH7-B3 variant A327_13S/GpL16-k0 (antibody, human IgG1, kappa)
heavy 1: not shown
heavy 2: not shown
light: B1 light
notes: as for B1
B4: GpH7-A5/GpH7-B3 variant I336_15Y/GpL16-k0 (antibody, human IgG1, kappa)
heavy 1: not shown
heavy 2: not shown
light: B1 light
notes: as for B1
B5: GpH7-A5/GpH7-B3 variant I336_10E/GpL16-k0 (antibody, human IgG1, kappa)
heavy 1: not shown
heavy 2: not shown
light: B1 light
notes: as for B1
B6: GpH7-A5/GpH7-B3 variant S298_16H/GpL16-k0 (antibody, human IgG1, kappa)
heavy 1: not shown
heavy 2: not shown
light: B1 light
notes: as for B1
B7: GpH7-A5/GpH7-B3 variant A327_11K/GpL16-k0 (antibody, human IgG1, kappa)
heavy 1: not shown
heavy 2: not shown
light: B1 light
notes: as for B1
B8: GpH7-A5/GpH7-B3 variant N325_11K/GpL16-k0 (antibody, human IgG1, kappa)
heavy 1: not shown
heavy 2: not shown
light: B1 light
notes: as for B1
B9: GpH7-A5/GpH7-B3 variant I336_11K/GpL16-k0 (antibody, human IgG1, kappa)
heavy 1: not shown
heavy 2: not shown
light: B1 light
notes: as for B1
B10: GpH7-A5/GpH7-B3 variant I336_13S/GpL16-k0 (antibody, human IgG1, kappa)
heavy 1: not shown
heavy 2: not shown
light: B1 light
notes: as for B1
B11: GpH7-A5/GpH7-B3 variant N325_12R/GpL16-k0 (antibody, human IgG1, kappa)
heavy 1: not shown
heavy 2: not shown
light: B1 light
notes: as for B1
B12: GpH7-A5/GpH7-B3 variant N325_05P/GpL16-k0 (antibody, human IgG1, kappa)
heavy 1: not shown
heavy 2: not shown
light: B1 light
notes: as for B1
B13: GpH7-A5/GpH7-B3 variant T335_07I/GpL16-k0 (antibody, human IgG1, kappa)
heavy 1: not shown
heavy 2: not shown
light: B1 light
notes: also called He Ab T335_07I
B14: GpH7-A5/GpH7-B3 variant T335_15Y/GpL16-k0 (antibody, human IgG1, kappa)
heavy 1: not shown
heavy 2: not shown
light: B1 light
notes: also called He Ab T335_15Y
B15: GpH7-A5/GpH7-B3 variant T335_13S/GpL16-k0 (antibody, human IgG1, kappa)
heavy 1: not shown
heavy 2: not shown
light: B1 light
notes: also called He Ab T335_13S
B16: GpH7-A5/GpH7-B3 variant T335_16H/GpL16-k0 (antibody, human IgG1, kappa)
heavy 1: not shown
heavy 2: not shown
light: B1 light
notes: also called He Ab T335_16H
B17: GpH7-A5/GpH7-B3 variant T335_19Q/GpL16-k0 (antibody, human IgG1, kappa)
heavy 1: not shown
heavy 2: not shown
light: B1 light
notes: also called He Ab T335_19Q
B18: GpH7-A5/GpH7-B3 variant V266_07I/GpL16-k0 (antibody, human IgG1, kappa)
heavy 1: not shown
heavy 2: not shown
light: B1 light
notes: also called He Ab V266_07I
B19: GpH7-A5/GpH7-B3 variant T335_10E/GpL16-k0 (antibody, human IgG1, kappa)
heavy 1: not shown
heavy 2: not shown
light: B1 light
notes: also called He Ab T335_10E
B20: GpH7-A5/GpH7-B3 variant Y296_18N/GpL16-k0 (antibody, human IgG1, kappa)
heavy 1: not shown
heavy 2: not shown
light: B1 light
notes: also called He Ab Y296_18N

The first assay deals with T2, FcγRIa (human, UniProt P12314 16-292).
T2 construct: extracellular domain; Soluble extracellular domain with C-terminal His tag, used as analyte; also called FcgRI; CD64; not shown: His tag at the C terminus
T2 sequence (P12314 16-292): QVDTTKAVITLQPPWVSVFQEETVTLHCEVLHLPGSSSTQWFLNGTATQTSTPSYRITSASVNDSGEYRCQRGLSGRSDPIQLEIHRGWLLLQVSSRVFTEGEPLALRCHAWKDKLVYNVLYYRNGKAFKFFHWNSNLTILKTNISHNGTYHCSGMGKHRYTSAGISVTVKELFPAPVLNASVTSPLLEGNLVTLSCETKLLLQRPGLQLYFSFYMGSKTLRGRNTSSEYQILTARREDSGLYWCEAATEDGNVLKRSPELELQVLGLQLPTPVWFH
Nature of the assay: SPR (Biacore), captured antibody, FcγR as analyte, relative binding. As for the experimental part:
(§1) The heterodimerized antibodies He Abs in which one of the H chains was introduced with an alteration were assayed for their binding activities to each activating FcγR and inhibitory FcγR according to the method described in Example 4. […] The activating FcγRs in FIGS. 26, 27, 28, and 29 are FcγRIa, FcγRIIa (R), FcγRIIa (H), and FcγRIIIa, respectively.
(§2) Analysis of interaction between objective antibody and the FcγR was carried out using Biacore T100 (GE Healthcare). HBS-EP+ (GE Healthcare) was used as the running buffer, and the measurement temperature was set to 25° C. Chips produced by immobilizing the antigen peptide by the amine coupling method to a Series S Sencor Chip CM5 (GE Healthcare), or alternatively, chips produced by allowing preliminarily biotinylated antigen peptides to interact with and immobilize onto a Series S Sensor Chip SA (certified) (GE Healthcare) were used. Antibodies of interest were captured onto an antigen peptide-immobilized chip, and allowed to interact to each FcγR diluted with running buffer. To regenerate and repeatedly use the chip, the antibodies captured on the chip were washed off by reacting 10 mM glycine-HCl, pH 1.5.
Consider B1, for which the He/Con_1a is 95.1 % of GpH7-A5/GpH7-B3/GpL16-k0.

As for B2, the He/Con_1a is 104 % of GpH7-A5/GpH7-B3/GpL16-k0.

As for B3, the He/Con_1a is 102 % of GpH7-A5/GpH7-B3/GpL16-k0.

Regarding B4, the He/Con_1a was 103 % of GpH7-A5/GpH7-B3/GpL16-k0.

With B5, the He/Con_1a was 108 % of GpH7-A5/GpH7-B3/GpL16-k0.

As for B6, the He/Con_1a is 109 % of GpH7-A5/GpH7-B3/GpL16-k0.

Regarding B7, the He/Con_1a was 86.1 % of GpH7-A5/GpH7-B3/GpL16-k0.

Take B8: the He/Con_1a was 80.9 % of GpH7-A5/GpH7-B3/GpL16-k0.

For the molecule B9, the He/Con_1a is 105 % of GpH7-A5/GpH7-B3/GpL16-k0.

Take B10: the He/Con_1a is 102 % of GpH7-A5/GpH7-B3/GpL16-k0.

B11: the He/Con_1a is 84.2 % of GpH7-A5/GpH7-B3/GpL16-k0.

As to B12, the He/Con_1a is 88.8 % of GpH7-A5/GpH7-B3/GpL16-k0.

A further assay addresses T1, FcγRIIb. The description is as above. As for the experimental part: as §1, §2
For B1, the He/Con_2b is 70.1 % of GpH7-A5/GpH7-B3/GpL16-k0.

B2: the He/Con_2b was 92.1 % of GpH7-A5/GpH7-B3/GpL16-k0.

As to B3, the He/Con_2b was 79.5 % of GpH7-A5/GpH7-B3/GpL16-k0.

As to B4, the He/Con_2b was 68.2 % of GpH7-A5/GpH7-B3/GpL16-k0.

As to B5, the He/Con_2b was 89.8 % of GpH7-A5/GpH7-B3/GpL16-k0.

As to B6, the He/Con_2b was 63.5 % of GpH7-A5/GpH7-B3/GpL16-k0.

As for B7, the He/Con_2b is 12.5 % of GpH7-A5/GpH7-B3/GpL16-k0.

As for B8, the He/Con_2b is 10.4 % of GpH7-A5/GpH7-B3/GpL16-k0.

On to B9, for which the He/Con_2b is 90.3 % of GpH7-A5/GpH7-B3/GpL16-k0.

For the molecule B10, the He/Con_2b is 83.7 % of GpH7-A5/GpH7-B3/GpL16-k0.

As to B11, the He/Con_2b is 19.1 % of GpH7-A5/GpH7-B3/GpL16-k0.

In the case of B12, the He/Con_2b was 26 % of GpH7-A5/GpH7-B3/GpL16-k0.

The target in the next assay is FcγRIIa H (human, UniProt P12318 34-217). Nature of the assay: SPR Biacore, captured antibody, FcγR analyte; vs GpH7-A5/GpH7-B3/GpL16-k0 = 100.
Chain of FcγRIIa H (P12318 34-217): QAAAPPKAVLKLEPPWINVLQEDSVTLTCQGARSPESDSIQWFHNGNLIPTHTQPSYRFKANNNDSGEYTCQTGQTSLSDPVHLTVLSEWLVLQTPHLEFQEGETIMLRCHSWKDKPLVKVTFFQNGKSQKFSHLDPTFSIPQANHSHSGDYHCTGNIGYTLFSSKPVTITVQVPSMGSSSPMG
On to B13, for which the He/Con_2aH was 108 % of control.

Take B14: the He/Con_2aH is 106 % of control.

B15: the He/Con_2aH is 106 % of control.

For the molecule B16, the He/Con_2aH is 105 % of control.

Take B17: the He/Con_2aH was 103 % of control.

In the case of B18, the He/Con_2aH is 106 % of control.

As for B19, the He/Con_2aH was 108 % of control.

Take B20: the He/Con_2aH is 104 % of control.

Source of the values: US20150344570A1 (published 2015).
